In article PMC3057836 (The Journal of Biological Chemistry, 2010):

B1: CSpoIISA (His6 tag-free cytosolic domain of SpoIISA) (domain or fragment)
chain: FIFLSAYVKKLAGSELETDTREILEENNEMLHMYLNRLKTYQYLLKNEPIHVYYGSIDAYAEGIDKLLKTYADKMNLTASLCHYSTQADKDRLTEHMDDPADVQTRLDRKDVYYDQYGKVVLIPFTIETQNYVIKLTSDSIVTEFDYLLFTSLTSIYDLVLPIEEEGEG
B2: cytoplasmic fragment of SpoIISA (CSpoIISA) as found in the crystal of the CSpoIISA·SpoIISB complex (domain or fragment)
chain: GSELETDTREILEENNEMLHMYLNRLKTYQYLLKNEPIHVYYGSIDAYAEGIDKLLKTYADKMNLTASLCHYSTQADKDRLTEHMDDPADVQTRLDRKDVYYDQYGKVVLIPFTIETQNYVIKLTSDSIVTEFDYLLFTSLTSIYDLVLPIEEEGEG
modifications: selenomethionine-substituted

Tests used:
SEC = molecular target: the molecule itself; experiment: SEC
crystal structure = molecular target: the molecule itself; experiment: crystal structure

| Protein | stoichiometry N (SEC) | stoichiometry N (crystal structure) |
| --- | --- | --- |
| B1 | 2 | – |
| B2 | – | 2 |
